In article PMC5134462, “Electrochemical Aptasensor for Myoglobin-Specific Recognition Based on Porphyrin Functionalized Graphene-Conjugated Gold Nanocomposites”:

Target: T1, myoglobin (human, UniProt P02144 2-154)
T1 sequence: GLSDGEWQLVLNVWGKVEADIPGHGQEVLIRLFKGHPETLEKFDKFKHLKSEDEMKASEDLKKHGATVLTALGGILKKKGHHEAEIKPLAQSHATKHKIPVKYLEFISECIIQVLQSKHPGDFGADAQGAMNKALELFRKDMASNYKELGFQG
Test: electrochemical aptasensor (DPV); aptamer immobilized on TCPP-Gr/AuNPs/GCE; 45 min incubation; 1.47e-10 M myoglobin; LOD 6.7e-12 M, linear 2.0e-11 to 7.7e-7 M (not Kd); Aptamer dissolved in T-buffer: 20 mM Tris-HCl, 0.10 M NaCl, 5.0 mM MgCl2, 10 mM TCEP, pH 7.4; binding buffer and temperature not given in the material
Conditions: protein: native; label: ferrocene (3')

CCCTCCTTTCCTTCGACGTAGATCTGCTGCGTTGTTCCGA (ssDNA, 5' SH-(CH2)6; 3' ferrocene (Fc)) [MbBA (myoglobin-binding aptamer)]
binding result: binds
